Sequences and labels used below:
B1: 73 (protein)
chain: MADLYENPMGLMGFEFIEFASPTPGTLEPIFEIMGFTKVATHRSKNVHLYRQGEINLILNNEPNSIASYFAAEHGPSVCGMAFRVKDSQKAYNRALELGAQPIHIDTGPMELNLPAIKGIGGAPLYLIDRFGEGSSIYDIDFVYLEGVERNPVGAGLKVIDHLTHNVYRGRMVYWANFYEKLFNFREARYFDIKGEYTGLTSKAMSAPDGMIRIPLNEESSKGAGQIEEFLMQFNGEGIQHVAFLTDDLVKTWDALKKIGMRFMTAPSDEYYEMLEGRLPDHGEPVDQLQARGILLDGSSVEGDKRLLLQIFSETLMGPVFFEFIQRKGDDGFGPDSFKVLFESVERDQVRRGVLTAD
modifications: mutant HPPD polypeptide
B2: 83 (protein)
chain: B1 chain with S268G, V340G
modifications: mutant HPPD polypeptide
B3: 46 (protein)
chain: B1 chain with S268G, T315M
modifications: mutant HPPD polypeptide
B4: 76 (protein)
chain: B1 chain with S268G, E270R
modifications: mutant HPPD polypeptide
B5: 81 (protein)
chain: B1 chain with S268G, V340A
modifications: mutant HPPD polypeptide
B6: 57 (protein)
chain: B1 chain with S268G, K339T
modifications: mutant HPPD polypeptide
B7: 56 (protein)
chain: B1 chain with S268G, K339R
modifications: mutant HPPD polypeptide
B8: 52 (protein)
chain: B1 chain with S268G, D331S
modifications: mutant HPPD polypeptide
B9: 77 (protein)
chain: B1 chain with S268G, E270S
modifications: mutant HPPD polypeptide

Substitutions are numbered along the chain they refer to.

The subject of the first data set is E. coli cells expressing an HPPD polypeptide. Kind of data set: Brown color bioassay in liquid culture, residual brown color formation (BCF), OD440 after 96 hours. In kind it is cell-based. Conditions: brown color formation in absence of Cmpd. 1, culture supernatant after 96 hours, 5 mM HPP. The method in brief:
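E. coli expressing HPPD variants were grown at 30 degrees Celsius from OD600 0.3-0.5 in LB with 5 mM HPP, with or without herbicide (e.g. Cmpd. 1, 1000 μM). After 96 hours, supernatant OD440 was measured; residual brown colour formation compares pigment with and without inhibitor.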
Take B1: the “Control BCF OD440nm” value came out at 2.75.

On to B2, for which the “Control BCF OD440nm” value worked out at 1.83.

B3: the “Control BCF OD440nm” value stood at 2.47.

In the case of B4, the “Control BCF OD440nm” value is listed as 2.73.

Take B5: the “Control BCF OD440nm” value is listed as 2.05.

Take B6: the “Control BCF OD440nm” value was determined as 1.39.

Consider B7, for which the “Control BCF OD440nm” value amounted to 1.98.

With B8, the “Control BCF OD440nm” value is given as 2.08.

For the molecule B9, the “Control BCF OD440nm” value is 2.57.

The data set is the same for the next values; noted with them: brown color formation with Cmpd. 1 (1000 μM) relative to without, after 96 hours.
For the molecule B1, the “Residual BCF OD440nm [%]” value was determined as 72%.

Regarding B2, the “Residual BCF OD440nm [%]” value was determined as 47%.

B3: the “Residual BCF OD440nm [%]” value was found to be 66%.

B4: the “Residual BCF OD440nm [%]” value is listed as 58%.

Take B5: the “Residual BCF OD440nm [%]” value turned out to be 39%.

For the molecule B6, the “Residual BCF OD440nm [%]” value is 46%.

In the case of B7, the “Residual BCF OD440nm [%]” value worked out at 68%.

Consider B8, for which the “Residual BCF OD440nm [%]” value is 65%.

For the molecule B9, the “Residual BCF OD440nm [%]” value was 67%.

Another data set concerns HPPD polypeptides (wild-type SEQ ID NO:1 and mutants).
Assay: not given
Conditions: kapp in presence of 50 μM Cmpd. 1, normalised to kapp without inhibitor; low substrate concentration.
Regarding B1, the Residual activity is recorded as 29%.

For B2, the Residual activity is listed as 53%.

Turning to B3, the Residual activity is listed as 32%.

In the case of B4, the Residual activity is 19%.

As to B5, the Residual activity was 17%.

For B6, the Residual activity was 33%.

In the case of B7, the Residual activity worked out at 27%.

Take B8: the Residual activity turned out to be 31%.

Regarding B9, the Residual activity amounted to 19%.

Still in this data set, the particulars now being: total change in signal in presence of 50 μM Cmpd. 1, normalised to that without inhibitor; low substrate concentration.
For the molecule B1, the Residual turnover is on record as 58%.

B2: the Residual turnover came out at 87%.

For B3, the Residual turnover is 59%.

For B4, the Residual turnover was determined as 50%.

For the molecule B5, the Residual turnover stood at 51%.

Consider B6, for which the Residual turnover is reported as 68%.

Regarding B7, the Residual turnover is listed as 59%.

For the molecule B8, the Residual turnover worked out at 57%.

As to B9, the Residual turnover came to 44%.

For the origin of these results see patent US10597674B2, “HPPD variants and methods of use” (BASF Agricultural Solutions Seed, US LLC, priority 2015, dated 2020).
